Target: T1, VEGF (UniProt P15692-4 27-191)
T1 construct: Bought reagent; also called vascular endothelial growth factor
Test: BIACORE SPR

T1 sequence (P15692 other isoform, or with tags, fused parts or gaps limits assumed): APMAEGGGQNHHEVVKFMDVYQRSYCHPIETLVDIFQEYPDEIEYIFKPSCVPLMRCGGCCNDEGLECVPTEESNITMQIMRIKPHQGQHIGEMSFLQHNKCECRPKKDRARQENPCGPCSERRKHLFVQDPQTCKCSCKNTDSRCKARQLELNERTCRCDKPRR

| Binder | Kd | koff | kon |
| --- | --- | --- | --- |
| DVD457 (bispecific antibody, human IgG1, kappa, L234A L235A, DVD-Ig; N-term; AB069 (DLL4), C-term; AB071 (VEGF); HC linker long, LC linker short; also called DVD457H; DVD457L) heavy: not shown light: DIVMTQSPDSLAVSLGERATISCRASESVDNYGISFMKWFQQKPGQPPKLLIYAASNQGSGVPDRFSGSGSGTDFTLTISSLQAEDVAVYYCQQSKEVPWTFGGGTKVEIKRTVAAPDIQMTQSPSSLSASVGDRVTITCRASQVIRRSLAWYQQKPGKAPKLLIYAASNLASGVPSRFSGSGSGTDFTLTISSLQPEDFATYYCQQSNTSPLTFGQGTKVEIKRTVAAPSVFIFPPSDEQLKSGTASVVCLLNNFYPREAKVQWKVDNALQSGNSQESVTEQDSKDSTYSLSSTLTLSKADYEKHKVYACEVTHQGLSSPVTKSFNRGEC | 0.307 nM | 5.43e-05 s⁻¹ | 177000 M⁻¹ s⁻¹ |
| DVD463 (bispecific antibody, human IgG1, kappa, DVD-Ig; N-term; AB069 (DLL4), C-term; AB071 (VEGF); HC linker short, LC linker long; also called DVD463H; DVD463L) heavy: not shown light: DIVMTQSPDSLAVSLGERATISCRASESVDNYGISFMKWFQQKPGQPPKLLIYAASNQGSGVPDRFSGSGSGTDFTLTISSLQAEDVAVYYCQQSKEVPWTFGGGTKVEIKRTVAAPSVFIFPPDIQMTQSPSSLSASVGDRVTITCRASQVIRRSLAWYQQKPGKAPKLLIYAASNLASGVPSRFSGSGSGTDFTLTISSLQPEDFATYYCQQSNTSPLTFGQGTKVEIKRTVAAPSVFIFPPSDEQLKSGTASVVCLLNNFYPREAKVQWKVDNALQSGNSQESVTEQDSKDSTYSLSSTLTLSKADYEKHKVYACEVTHQGLSSPVTKSFNRGEC | 0.771 nM | 0.000479 s⁻¹ | 621000 M⁻¹ s⁻¹ |
| DVD515 (bispecific antibody, human IgG1, kappa, DVD-Ig; N-term; AB073 (DLL4), C-term; AB071 (VEGF); HC linker short, LC linker short; also called DVD515H; DVD515L) heavy: not shown light: QAVVTQESALTTSPGETVTLTCRSSTGAVTTSNYANWVQEKPDHLFTGLIGGTNNRAPGVPARFSGSLIGDKAALTITGAQTEDEAIYFCALWYSNHWVFGGGTKLTVLGQPKAAPDIQMTQSPSSLSASVGDRVTITCRASQVIRRSLAWYQQKPGKAPKLLIYAASNLASGVPSRFSGSGSGTDFTLTISSLQPEDFATYYCQQSNTSPLTFGQGTKVEIKRTVAAPSVFIFPPSDEQLKSGTASVVCLLNNFYPREAKVQWKVDNALQSGNSQESVTEQDSKDSTYSLSSTLTLSKADYEKHKVYACEVTHQGLSSPVTKSFNRGEC | 1.45 nM | 0.000585 s⁻¹ | 405000 M⁻¹ s⁻¹ |
| DVD521 (bispecific antibody, human IgG1, kappa, lambda, L234A L235A, DVD-Ig; N-term; AB073 (DLL4), C-term; AB071 (VEGF); HC linker long, LC linker long; also called DVD521H; DVD521L) heavy: not shown light: QAVVTQESALTTSPGETVTLTCRSSTGAVTTSNYANWVQEKPDHLFTGLIGGTNNRAPGVPARFSGSLIGDKAALTITGAQTEDEAIYFCALWYSNHWVFGGGTKLTVLGQPKAAPSVTLFPPDIQMTQSPSSLSASVGDRVTITCRASQVIRRSLAWYQQKPGKAPKLLIYAASNLASGVPSRFSGSGSGTDFTLTISSLQPEDFATYYCQQSNTSPLTFGQGTKVEIKRTVAAPSVFIFPPSDEQLKSGTASVVCLLNNFYPREAKVQWKVDNALQSGNSQESVTEQDSKDSTYSLSSTLTLSKADYEKHKVYACEVTHQGLSSPVTKSFNRGEC | 0.882 nM | 0.000588 s⁻¹ | 666000 M⁻¹ s⁻¹ |
| DVD527 (bispecific antibody, human IgG1, kappa, DVD-Ig; N-term; AB073 (DLL4), C-term; AB071 (VEGF); HC linker long, LC linker short; also called DVD527H; DVD527L) heavy: not shown light: QAVVTQESALTTSPGETVTLTCRSSTGAVTTSNYANWVQEKPDHLFTGLIGGTNNRAPGVPARFSGSLIGDKAALTITGAQTEDEAIYFCALWYSNHWVFGGGTKLTVLGQPKAAPDIQMTQSPSSLSASVGDRVTITCRASQVIRRSLAWYQQKPGKAPKLLIYAASNLASGVPSRFSGSGSGTDFTLTISSLQPEDFATYYCQQSNTSPLTFGQGTKVEIKRTVAAPSVFIFPPSDEQLKSGTASVVCLLNNFYPREAKVQWKVDNALQSGNSQESVTEQDSKDSTYSLSSTLTLSKADYEKHKVYACEVTHQGLSSPVTKSFNRGEC | 0.842 nM | 0.000446 s⁻¹ | 529000 M⁻¹ s⁻¹ |
| DVD533 (bispecific antibody, human IgG1, kappa, lambda, L234A L235A, DVD-Ig; N-term; AB073 (DLL4), C-term; AB071 (VEGF); HC linker short, LC linker long; also called DVD533H; DVD533L) heavy: not shown light: QAVVTQESALTTSPGETVTLTCRSSTGAVTTSNYANWVQEKPDHLFTGLIGGTNNRAPGVPARFSGSLIGDKAALTITGAQTEDEAIYFCALWYSNHWVFGGGTKLTVLGQPKAAPSVTLFPPDIQMTQSPSSLSASVGDRVTITCRASQVIRRSLAWYQQKPGKAPKLLIYAASNLASGVPSRFSGSGSGTDFTLTISSLQPEDFATYYCQQSNTSPLTFGQGTKVEIKRTVAAPSVFIFPPSDEQLKSGTASVVCLLNNFYPREAKVQWKVDNALQSGNSQESVTEQDSKDSTYSLSSTLTLSKADYEKHKVYACEVTHQGLSSPVTKSFNRGEC | 0.825 nM | 0.000501 s⁻¹ | 608000 M⁻¹ s⁻¹ |
| DVD491 (bispecific antibody, human IgG1, kappa, DVD-Ig; N-term; AB072 (DLL4), C-term; AB071 (VEGF); HC linker short, LC linker short; also called DVD491H; DVD491L) heavy: not shown light: DIQMTQSSSYLSVSLGGRVTITCKASDHINNWLAWYQQKPGNAPRLLISGATSLETGVPSRFSGSGSGKDYTLSITSLQTEDVATYYCQQYWSIPLTFGAGTKLELKRTVAAPDIQMTQSPSSLSASVGDRVTITCRASQVIRRSLAWYQQKPGKAPKLLIYAASNLASGVPSRFSGSGSGTDFTLTISSLQPEDFATYYCQQSNTSPLTFGQGTKVEIKRTVAAPSVFIFPPSDEQLKSGTASVVCLLNNFYPREAKVQWKVDNALQSGNSQESVTEQDSKDSTYSLSSTLTLSKADYEKHKVYACEVTHQGLSSPVTKSFNRGEC | 0.72 nM | 0.000245 s⁻¹ | 340000 M⁻¹ s⁻¹ |
| DVD497 (bispecific antibody, human IgG1, kappa, DVD-Ig; N-term; AB072 (DLL4), C-term; AB071 (VEGF); HC linker long, LC linker long; also called DVD497H; DVD497L) heavy: not shown light: DIQMTQSSSYLSVSLGGRVTITCKASDHINNWLAWYQQKPGNAPRLLISGATSLETGVPSRFSGSGSGKDYTLSITSLQTEDVATYYCQQYWSIPLTFGAGTKLELKRTVAAPSVFIFPPDIQMTQSPSSLSASVGDRVTITCRASQVIRRSLAWYQQKPGKAPKLLIYAASNLASGVPSRFSGSGSGTDFTLTISSLQPEDFATYYCQQSNTSPLTFGQGTKVEIKRTVAAPSVFIFPPSDEQLKSGTASVVCLLNNFYPREAKVQWKVDNALQSGNSQESVTEQDSKDSTYSLSSTLTLSKADYEKHKVYACEVTHQGLSSPVTKSFNRGEC | 0.668 nM | 8.37e-05 s⁻¹ | 125000 M⁻¹ s⁻¹ |
| DVD503 (bispecific antibody, human IgG1, kappa, DVD-Ig; N-term; AB072 (DLL4), C-term; AB071 (VEGF); HC linker long, LC linker short; also called DVD503H; DVD503L) heavy: not shown light: DIQMTQSSSYLSVSLGGRVTITCKASDHINNWLAWYQQKPGNAPRLLISGATSLETGVPSRFSGSGSGKDYTLSITSLQTEDVATYYCQQYWSIPLTFGAGTKLELKRTVAAPDIQMTQSPSSLSASVGDRVTITCRASQVIRRSLAWYQQKPGKAPKLLIYAASNLASGVPSRFSGSGSGTDFTLTISSLQPEDFATYYCQQSNTSPLTFGQGTKVEIKRTVAAPSVFIFPPSDEQLKSGTASVVCLLNNFYPREAKVQWKVDNALQSGNSQESVTEQDSKDSTYSLSSTLTLSKADYEKHKVYACEVTHQGLSSPVTKSFNRGEC | 0.466 nM | 0.000105 s⁻¹ | 226000 M⁻¹ s⁻¹ |
| DVD509 (bispecific antibody, human IgG1, kappa, DVD-Ig; N-term; AB072 (DLL4), C-term; AB071 (VEGF); HC linker short, LC linker long; also called DVD509H; DVD509L) heavy: not shown light: DIQMTQSSSYLSVSLGGRVTITCKASDHINNWLAWYQQKPGNAPRLLISGATSLETGVPSRFSGSGSGKDYTLSITSLQTEDVATYYCQQYWSIPLTFGAGTKLELKRTVAAPSVFIFPPDIQMTQSPSSLSASVGDRVTITCRASQVIRRSLAWYQQKPGKAPKLLIYAASNLASGVPSRFSGSGSGTDFTLTISSLQPEDFATYYCQQSNTSPLTFGQGTKVEIKRTVAAPSVFIFPPSDEQLKSGTASVVCLLNNFYPREAKVQWKVDNALQSGNSQESVTEQDSKDSTYSLSSTLTLSKADYEKHKVYACEVTHQGLSSPVTKSFNRGEC | 0.0613 nM | 7.83e-06 s⁻¹ | 128000 M⁻¹ s⁻¹ |
| DVD468 (bispecific antibody, human IgG1, kappa, DVD-Ig; N-term; AB071 (VEGF), C-term; AB015 (DLL4); HC linker short, LC linker short; also called DVD468H; DVD468L) heavy: not shown light: DIQMTQSPSSLSASVGDRVTITCRASQVIRRSLAWYQQKPGKAPKLLIYAASNLASGVPSRFSGSGSGTDFTLTISSLQPEDFATYYCQQSNTSPLTFGQGTKVEIKRTVAAPDIQMTQSPSSLSASVGDRVTITCRASQDVSTAVAWYQQKPGKAPKLLIYSASFLYSGVPSRFSGSGSGTDFTLTISSLQPEDFATTYYCQQSYTGTVTFGQGTKVEIKRTVAAPSVFIFPPSDEQLKSGTASVVCLLNNFYPREAKVQWKVDNALQSGNSQESVTEQDSKDSTYSLSSTLTLSKADYEKHKVYACEVTHQGLSSPVTKSFNRGEC | 0.00148 nM | 1.74e-07 s⁻¹ | 118000 M⁻¹ s⁻¹ |
